In patent US20240335558A1, “ISOLATED POLYPEPTIDE AND USE THEREOF” (GLYCO-THERAPY BIOTECHNOLOGY CO., LTD., priority 2021, published 2024):

Legend:
Format in all cases: biochemical
Trastuzumab-G2F [1] = test: Transfer of GDP-FAmP4Biotin to Trastuzumab-G2F by different HpFTs (% of conversion by MS); conditions: donor GDP-FAmP4Biotin 1 mM, enzyme 0.5 mg/mL, 30° C., 3 h; FIG. 1
Description: (§1) To 40 mM Tris-HCl (pH 7.5) buffer were added Trastuzumab-G2F (2 mg/mL final), GDP-FAmP4Biotin (1 mM final), MgCl2 (20 mM final), and different HpFT enzymes (HpFT-4HR, HpFT-4HR(M4), HpFT-4HR(M7), HpFT-6HR, HpFT-3HR, HpFT-2HR, HpFT-1HR, or HpFT-0HR) (0.5 mg/mL final) in sequence, and the resulting mixed solution was allowed to react at 30° C. for 3 h. Three parallels were set up for each group. After the reaction time point was reached, to the reaction solution was added 10 mM LacNAc (N-acetyl-D-lactosamine), and the reaction was terminated by a desalting column (Zeba™ Spin Desalting Columns/2 ml/40K, Thermo Fisher Scientific), and finally mass spectrometry was carried out and % of conversion was calculated. % of conversion=(MAR0 peak intensity*0+MAR1peak intensity*1+MAR2 peak intensity*2+MAR3 peak intensity*3+MAR4 peak intensity*4)/4* (MAR0 peak intensity+MAR1 peak intensity+MAR2 peak intensity+MAR3 peak intensity+MAR4 peak intensity)*100%.

[2] = test system: Trastuzumab-(GalNAzβ1,4)GlcNAc; test: Transfer of GDP-FAmP4Biotin to Trastuzumab-(GalNAzβ1,4)GlcNAc by different HpFTs; conditions: donor GDP-FAmP4Biotin 1 mM, enzyme 0.5 mg/mL, 30° C., 3 h; FIG. 4
Trastuzumab-G2F [3] = test: HpFT-2HR and HpFT-4HR transferring GDP-FAmP4Biotin or GDP-FAzP4Biotin to Trastuzumab-G2F; conditions: enzyme 0.5 mg/mL, 30° C., 6 h, FIG. 6(A)
Description: as §1
To 40 mM Tris-HCl (pH 7.5) buffer were added Trastuzumab-G2F (2 mg/mL final), GDP-FAmP4Biotin or GDP-FAzP4Biotin (1 mM final), MgCl2 (20 mM final), and HpFT-2HR or HpFT-4HR (0.5 mg/mL final) in sequence, and the resulting mixed solution was allowed to react at 30° C. for 6 h. Three parallels were set up for each group. After the reaction time point was reached, to the reaction solution was added 10 mM LacNAc, and the reaction was terminated by a desalting column (Zeba™ Spin Desalting Columns/2 ml/40K, Thermo Fisher Scientific), and finally mass spectrometry was carried out and % of conversion was calculated. % of conversion was calculated according to Example 17.

Trastuzumab-G2F [4] = test: HpFT-2HR and HpFT-4HR transferring GDP-FAmSucMMAE to Trastuzumab-G2F; conditions: donor 1 mM, enzyme 0.5 mg/mL, 30° C., 3 h and 6 h; FIG. 7A
Description: as §1
(§2) To 40 mM Tris-HCl (pH 7.5) buffer were added Trastuzumab-G2F or Durvalumab-G2F (2 mg/mL final), GDP-FAmSucMMAE (1 mM final), MgCl2 (20 mM final), and HpFT-2HR or HpFT-4HR (0.5 mg/mL final) in sequence, and the resulting mixed solution was allowed to react at 30° C. for 3 h and 6 h. Three parallels were set up for each group. […]

Durvalumab-G2F = test: HpFT-2HR and HpFT-4HR transferring GDP-FAmSucMMAE to Durvalumab-G2F; conditions: donor 1 mM, enzyme 0.5 mg/mL, 30° C., 3 h and 6 h; FIG. 7B
Description: as §1, §2

[5] = test system: Trastuzumab-(GalNAzβ1,4)GlcNAc; test: HpFT-2HR and HpFT-4HR transferring GDP-FAmSucMMAE to Trastuzumab-(GalNAzβ1,4)GlcNAc; conditions: donor 1 mM, enzyme 0.5 mg/mL, 30° C., 3 h and 6 h; FIG. 8A
Description: as §1, with “added Trastuzumab-(Fucα1,6)(Galβ1,4)GlcNAc” for “added Trastuzumab-G2F”, “HpFT-2HR, HpFT-1HR” for “HpFT-2HR, HpFT-1HR,”, “for 1” for “for 3”, “mM LacNA,” for “mM LacNAc (N-acetyl-D-lactosamine),”, “peak intensity*2)/2*” for “peak intensity*2+MAR3 peak intensity*3+MAR4 peak intensity*4)/4*”, “peak” for “peak intensity+MAR3 peak intensity+MAR4 peak”
as §2, with “Trastuzumab-(GalNAzβ1,4)GlcNAc” for “Trastuzumab-G2F”, “Durvalumab-(GalNAzβ1,4)GlcNAc” for “Durvalumab-G2F”

[6] = test system: Durvalumab-(GalNAzβ1,4)GlcNAc; test: HpFT-2HR and HpFT-4HR transferring GDP-FAmSucMMAE to Durvalumab-(GalNAzβ1,4)GlcNAc; conditions: donor 1 mM, enzyme 0.5 mg/mL, 30° C., 3 h and 6 h; FIG. 8B
Description: as §1, with “added Trastuzumab-(Fucα1,6)(Galβ1,4)GlcNAc” for “added Trastuzumab-G2F”, “HpFT-2HR, HpFT-1HR” for “HpFT-2HR, HpFT-1HR,”, “for 1” for “for 3”, “mM LacNA,” for “mM LacNAc (N-acetyl-D-lactosamine),”, “peak intensity*2)/2*” for “peak intensity*2+MAR3 peak intensity*3+MAR4 peak intensity*4)/4*”, “peak” for “peak intensity+MAR3 peak intensity+MAR4 peak”
as §2, with “Trastuzumab-(GalNAzβ1,4)GlcNAc” for “Trastuzumab-G2F”, “Durvalumab-(GalNAzβ1,4)GlcNAc” for “Durvalumab-G2F”

[7] = test system: Trastuzumab-(Galβ1,4)GlcNAc; test: HpFT-2HR and HpFT-4HR transferring GDP-FAmSucMMAE to Trastuzumab-(Galβ1,4)GlcNAc; conditions: donor 1 mM, enzyme 0.5 mg/mL, 30° C., 1 h and 2 h; FIG. 9
Description: as §1, with “added Trastuzumab-(Fucα1,6)(Galβ1,4)GlcNAc” for “added Trastuzumab-G2F”, “HpFT-2HR, HpFT-1HR” for “HpFT-2HR, HpFT-1HR,”, “for 1” for “for 3”, “mM LacNA,” for “mM LacNAc (N-acetyl-D-lactosamine),”, “peak intensity*2)/2*” for “peak intensity*2+MAR3 peak intensity*3+MAR4 peak intensity*4)/4*”, “peak” for “peak intensity+MAR3 peak intensity+MAR4 peak”
as §2, with “added Trastuzumab-(Galβ1,4)GlcNAc” for “added Trastuzumab-G2F or Durvalumab-G2F”, “for 1” for “for 3”, “and 2” for “and 6”

B1: HpFT-2HR: H. pylori α-1,3-fucosyltransferase variant: catalytically active domain, two heptapeptide repeat sequences and C-terminus fused His tag (protein)
chain: MFQPLLDAFIESASIEKMVSKSPPPPLKIAVANWWGDEEIKEFKKSVLYFILSQRYAITLHQNPNESSDLVFSNPLGAARKILSYQNTKRVFYTGENESPNFNLFDYAIGFDELDFNDRYLRMPLYYAHLHYEAELVNDTTAPYKLKDNSLYALKKPSHHFKENHPNLCAVVNDESDLLKRGFASFVASNANAPMRNAFYDALNSIEPVTGGGSVRNTLGYKVGNKSEFLSQYKFNLCFENSQGYGYVTEKILDAYFSHTIPIYWGSPSVAKDFNPKSFVNVHDFNNFDEAIDYIKYLHTHPNAYLDMLYENPLNTLDGKAYFYQDLSFKKILDFFKTILENDTIYHNNPFIFYRDLHEPLISIDDLRVNYDDLRVNYLEHHHHHH
modifications: Catalytically active domain of Helicobacter pylori Alpha-(1,3)-fucosyltransferase (GenBank No.AAD07710.1) with 2 heptapeptide repeats and a C-terminal His tag
- catalytic activity among the HpFT variants (Trastuzumab-G2F [1]): highest catalytic activity
- catalytic activity as compared with HpFT-4HR (% of conversion) (Trastuzumab-G2F [1]): significantly improved catalytic activity
- catalytic activity among the HpFT variants [2]: relatively high catalytic activity
- catalytic activity as compared with HpFT-4HR (% of conversion) [2]: significantly improved catalytic activity
- activity in catalyzing the transfer of GDP-FAmP4Biotin relative to transfer of GDP-FAzP4Biotin (Trastuzumab-G2F [3]; donor 1 mM): significantly higher
- activity in catalyzing the transfer of GDP-FAmP4Biotin, as compared with HpFT-4HR (Trastuzumab-G2F [3]; donor GDP-FAmP4Biotin 1 mM): significantly improved activity
- activity in catalyzing the transfer of GDP-FAzP4Biotin, as compared with HpFT-4HR (Trastuzumab-G2F [3]; donor GDP-FAzP4Biotin 1 mM): significantly improved activity
- activity in catalyzing the transfer of GDP-FAmSucMMAE, as compared with HpFT-4HR (Trastuzumab-G2F [4]): significantly improved activity
- activity in catalyzing the transfer of GDP-FAmSucMMAE, as compared with HpFT-4HR (Durvalumab-G2F): significantly improved activity
- activity in catalyzing the transfer of GDP-FAmSucMMAE, as compared with HpFT-4HR [5]: significantly improved activity
- activity in catalyzing the transfer of GDP-FAmSucMMAE, as compared with HpFT-4HR [6]: significantly improved activity
- activity in catalyzing the transfer of GDP-FAmSucMMAE, as compared with HpFT-4HR [7]: significantly improved activity
